Assays:
human FAP on CHO cells [1] = biological target: T1, human FAP on CHO cells (human, UniProt Q12884 1-760); assay: FACS, CHOK1 cells stably expressing human FAP
T1 construct: whole, on cells; also called CHO cell line overexpressing human FAP; CHOK1/FAP
Description: (§1) In this experiment, the binding of the anti-FAP/CD40 bispecific antibodies to stably transfected strains of CHOK1 cells that highly express human FAP, cynomolgus monkey FAP and mouse FAP was measured by FACS.

mouse FAP on CHOK1 cells [2] = biological target: T2, mouse FAP on CHOK1 cells (mouse, UniProt P97321 1-761); assay: FACS, CHOK1 cells stably expressing mouse FAP
T2 construct: whole, on cells; also called cell surface mouse FAP
T2 sequence (P97321 whole entry): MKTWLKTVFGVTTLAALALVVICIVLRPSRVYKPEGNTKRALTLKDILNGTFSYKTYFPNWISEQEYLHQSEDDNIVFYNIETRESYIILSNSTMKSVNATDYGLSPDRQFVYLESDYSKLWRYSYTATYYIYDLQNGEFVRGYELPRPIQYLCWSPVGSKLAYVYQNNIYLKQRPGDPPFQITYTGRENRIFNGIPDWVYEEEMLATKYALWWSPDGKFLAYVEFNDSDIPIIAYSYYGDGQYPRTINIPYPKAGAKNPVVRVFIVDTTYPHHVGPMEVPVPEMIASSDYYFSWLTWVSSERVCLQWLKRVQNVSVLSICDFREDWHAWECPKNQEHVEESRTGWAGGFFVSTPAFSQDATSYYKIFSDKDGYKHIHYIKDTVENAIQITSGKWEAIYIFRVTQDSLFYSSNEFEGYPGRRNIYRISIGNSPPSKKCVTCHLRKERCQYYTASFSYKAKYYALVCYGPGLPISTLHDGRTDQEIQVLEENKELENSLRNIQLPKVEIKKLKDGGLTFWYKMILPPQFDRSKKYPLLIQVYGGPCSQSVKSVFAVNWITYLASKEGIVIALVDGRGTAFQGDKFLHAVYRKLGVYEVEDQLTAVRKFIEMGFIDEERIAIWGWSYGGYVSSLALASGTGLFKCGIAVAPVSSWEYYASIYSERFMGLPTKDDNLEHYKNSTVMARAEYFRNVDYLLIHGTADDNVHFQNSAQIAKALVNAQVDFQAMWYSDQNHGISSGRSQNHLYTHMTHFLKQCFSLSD
Description: as §1

[3] = biological target: T3, human CD40 on cells (Raji cells; HEK-Blue CD40L cells; human dendritic cells) (human, UniProt P25942 21-277); assay: FACS, HEK-Blue CD40L cells expressing human CD40
T3 construct: whole, on cells; One entry for untagged full-length human CD40 on cells; also called Raji cell surface human CD40; human cell surface CD40 antigen
T3 sequence (P25942 21-277): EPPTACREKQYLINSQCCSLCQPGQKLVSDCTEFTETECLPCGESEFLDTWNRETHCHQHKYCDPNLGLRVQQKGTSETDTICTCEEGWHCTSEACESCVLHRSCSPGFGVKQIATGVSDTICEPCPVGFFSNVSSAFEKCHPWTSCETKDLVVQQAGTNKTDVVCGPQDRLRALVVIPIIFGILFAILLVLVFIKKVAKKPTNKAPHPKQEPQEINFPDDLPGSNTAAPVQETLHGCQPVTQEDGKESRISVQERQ
Description: (§2) The binding of the bispecific antibodies to cell surface CD40 was measured by FACS, including HEK-Blue™CD40L cells highly expressing human CD40 (Invivogen, Cat #hkb-cd40), and HEK293 cells that were transiently transfected with cynomolgus monkey CD40 plasmids (Sino Biological, cat #CG90970-UT) and thus made to highly express cynomolgus monkey CD40. […] See FIGS. 9A, 9B and 11 and Table 21 for details.

[4] = biological target: T4, cynomolgus monkey FAP on CHOK1 cells (cynomolgus monkey); assay: FACS, CHOK1 cells stably expressing cynomolgus monkey FAP
T4 construct: whole, on cells
Description: as §1

[5] = biological target: T3, human CD40 on cells (Raji cells; …); assay: flow cytometry on immature human dendritic cells (CD40)
[6] = biological target: T5, cynomolgus monkey CD40 on HEK293 cells (cynomolgus monkey, UniProt G7PG38 21-278); assay: FACS, HEK293 cells transiently expressing cynomolgus monkey CD40
T5 construct: whole, on cells
Description: as §2

[7] = biological target: T6, human FAP protein (Acro, FAP-H5244) (human, UniProt Q12884 26-760); assay: SPR (Biacore 8K), antibody captured by anti-human IgG Fc, human FAP analyte
T6 construct: Bought protein
Description: (§3) The affinities of the anti-FAP/CD40 bispecific antibodies for their antigens, the human FAP protein (Acro, FAP-H5244) and the human CD40 protein (Acro, CD0-H5228), were measured by SPR (GE Healthcare; Biacore 8K). A CM5 sensor chip was used, and HBS-EP+buffer solution (10 mM HEPES, 150 mM NaCl, 3 mM EDTA, 0.05% surfactant P20) was used as the mobile phase. An anti-human IgG (Fc) antibody was immobilized by amino coupling. The test antibodies were separately diluted in HBS-EP+buffer solution as ligands and captured by the anti-human IgG (Fc) antibody on chip channels. Antigenic proteins of different species were used as analytes.

h-CD40-His = biological target: T7, h-CD40-His (human, UniProt P25942 21-193); assay: SPR (Biacore 8K), antibody captured by anti-human IgG Fc, human CD40 analyte
T7 construct: range 21-193; Bought His-tagged recombinant protein; also called human CD40 protein (Acro, CD0-H5228); human CD40
T7 sequence (P25942 21-193 limits assumed): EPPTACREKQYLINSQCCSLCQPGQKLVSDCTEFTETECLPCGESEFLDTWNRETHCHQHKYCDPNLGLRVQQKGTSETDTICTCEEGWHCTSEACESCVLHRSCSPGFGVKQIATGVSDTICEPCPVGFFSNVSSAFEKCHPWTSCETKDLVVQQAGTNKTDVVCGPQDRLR
Description: as §3

human FAP on CHO cells [8] = biological target: T1, human FAP on CHO cells; assay: FACS, CHO cells overexpressing human FAP
Description: (§4) A FACS assay was used to measure the binding properties of anti-FAP antibodies on cells. The assay comprises the following steps: A CHO cell line overexpressing human FAP was constructed and plated (1E5/well). The test antibodies were added at 100 μL/well. The highest concentration was 100 nM. A 5-fold dilution was performed, yielding 8 concentrations in total. The plate was incubated at 4° C. for 1 h. Anti-hIgG Alexa Fluor-647 was added as a secondary antibody in the ratio of 1:500. The plate was incubated at 4° C. for 30 min, and a FACS assay was performed. Antibodies that bind to FAP can mark cells. The relation between the percentage of the marked cells that over-express human FAP among all cells and the antibody concentration is shown in FIG. 1. The relation between the percentage of the marked cells that over-express mouse FAP among all cells and the antibody concentration is shown in FIG. 2.

h-FAP-His [9] = biological target: T8, h-FAP-His (human, UniProt Q12884 26-760); assay: SPR, antibody captured by anti-human IgG Fc, h-FAP-His analyte
T8 construct: range 26-760; Bought recombinant protein with a His tag; also called human FAP-His protein; FAP recombinant protein with a His tag
Description: A CM5 sensor chip was used, and HBS-EP+buffer solution (10 mM HEPES, 150 mM NaCl, 3 mM EDTA, 0.05% surfactant P20) was used as the mobile phase. An anti-human IgG (Fc) antibody was made into a […] solution in a 10 mM sodium acetate buffer solution (pH 5.0) and immobilized by amino coupling. The test antibodies were diluted in HBS-EP+buffer solution and captured by the anti-human IgG (Fc) antibody on chip channels. h-FAP-His was dissolved in HBS-EP+buffer solution to prepare an analyte, and the analyte was serially diluted 2-fold. The diluted antibodies were passed through the experimental and reference channels at a flow rate of […], with 1 min of binding and 15 min of disassociation. 10 mM Glycine pH 1.5 was passed as a regeneration buffer solution for 30 s at a flow rate of […]. Data were analyzed. […] However, the binding affinities of the other anti-FAP antibodies obtained by screening at the same time in the present disclosure, such as Ab2, Ab4 and Ab5 (sequences not shown), for the antigen are lower than that of 28H1.

mouse FAP on CHOK1 cells [10] = biological target: T2, mouse FAP on CHOK1 cells; assay: FACS, percent of marked cells overexpressing mouse FAP, anti-hIgG Alexa Fluor-647 secondary antibody
Description: as §4

h-FAP-His [11] = biological target: T8, h-FAP-His; assay: ELISA, human FAP-His coated
Description: A FAP recombinant protein with a His tag was directly used for coating. After the antibodies were added, a secondary antibody (an HRP-conjugated anti-human IgG antibody) and the HRP substrate TMB were added to measure the binding activity of the antibodies to the antigen. The assay comprises the following steps: A […] solution of human FAP-His protein was used to coat a 96-well microplate at 100 μL/well, and the plate was incubated overnight at 4° C. After a thorough wash, a blocking solution was added at 200 μL/well, and the plate was incubated at room temperature for 2 h. After a thorough wash, dilutions of test anti-FAP antibodies were added at 100 μL/well. The plate was incubated at room temperature for 1 h. After a thorough wash, a 1:20,000 dilution of an HRP-labeled goat anti-human IgG secondary antibody was added at 100 μL/well. The plate was incubated at room temperature for 1 h. After a thorough wash, TMB was added at 100 μL/well, and the plate was incubated in the dark for 15 min. 0.16 M sulfuric acid was added at 50 μL/well. The OD value at 450 nm was measured on a Thermo MultiSkanFc microplate reader, and the binding EC₅₀ values of the anti-FAP antibodies were calculated.

Binder	EC50 (human FAP on CHO cells [1]) [nM]	Emax (MFI) (human FAP on CHO cells [1])	EC50 (mouse FAP on CHOK1 cells [2]) [nM]	Emax (MFI) (mouse FAP on CHOK1 cells [2])	EC50 [3] [nM]	Emax (MFI) [3] [MFI]	EC50 [4] [nM]	Emax (MFI) [4] [MFI]	EC50 (read off the curve) [5] [nM]	EC50 [6] [nM]	Kd [7] [nM]	koff [7] [s⁻¹]	kon [7] [M⁻¹ s⁻¹]	EC50 (human FAP on CHO cells [8]) [ng/mL]	Kd (h-FAP-His [9]) [nM]	Ratio of KD of 28H1 to KD of test antibody (h-FAP-His [9])	Ratio of Kd of 28H1 to Kd of test antibody (h-FAP-His [9])	koff (h-FAP-His [9]) [s⁻¹]	kon (h-FAP-His [9]) [M⁻¹ s⁻¹]	EC50 (read off the curve) (mouse FAP on CHOK1 cells [10]) [ng/mL]	further results
Ab10-A297V3-2 (bispecific antibody, human IgG1, kappa, L234A L235A, Ab10 IgG1 (L234A/L235A) with one A297V3 VHH on each heavy chain C-terminus; divalent for CD40; also called Ab0-A297V3-2) heavy: not shown light: DIQMTQSPSSVSASVGDRVTITCRASQGISSWLAWYQQKPGKAPKLLIYAASSLQSGVPSRFSGSGSGTDFTLTISSLQPEDFATYYCQQANSFPPAFGQGTKVEIKRTVAAPSVFIFPPSDEQLKSGTASVVCLLNNFYPREAKVQWKVDNALQSGNSQESVTEQDSKDSTYSLSSTLTLSKADYEKHKVYACEVTHQGLSSPVTKSFNRGEC	2.51	65200	0.79	12600	1.66	6250	1.09	28200	~4	1.31	0.405	8.22e-05	203000								Emax (MFI) [6]: 4930 MFI; Kd (h-CD40-His): 141 nM; koff (h-CD40-His): 0.0294 s⁻¹; kon (h-CD40-His): 209000 M⁻¹ s⁻¹
Ab10-A297V3-4 (bispecific antibody, human IgG1, kappa, L234A L235A, Ab10 IgG1 (L234A/L235A) with two A297V3 VHHs in tandem on each heavy chain C-terminus; tetravalent for CD40; also called Ab0-A297V3-4) heavy: not shown light: DIQMTQSPSSVSASVGDRVTITCRASQGISSWLAWYQQKPGKAPKLLIYAASSLQSGVPSRFSGSGSGTDFTLTISSLQPEDFATYYCQQANSFPPAFGQGTKVEIKRTVAAPSVFIFPPSDEQLKSGTASVVCLLNNFYPREAKVQWKVDNALQSGNSQESVTEQDSKDSTYSLSSTLTLSKADYEKHKVYACEVTHQGLSSPVTKSFNRGEC	1.57	53800	1.65	12700	0.94	5080	1.35	32500	~1	0.88	0.378	6.96e-05	184000								Emax (MFI) [6]: 5120 MFI; Kd (h-CD40-His): 262 nM; koff (h-CD40-His): 0.137 s⁻¹; kon (h-CD40-His): 524000 M⁻¹ s⁻¹
28H1 (antibody, V domains shown, also called control anti-FAP antibody 28H1) VH: EVQLLESGGGLVQPGGSLRLSCAASGFTFSSHAMSWVRQAPGKGLEWVSAIWASGEQYYADSVKGRFTISRDNSKNTLYLQMNSLRAEDTAVYYCAKGWLGNFDYWGQGTLVTVSS VL: EIVLTQSPGTLSLSPGERATLSCRASQSVSRSYLAWYQQKPGQAPRLLIIGASTRATGIPDRFSGSGSGTDFTLTISRLEPEDFAVYYCQQGQVIPPTFGQGTKVEIK														0.784	1.31	1	1	0.000255	195000	~1	
Ab9 (antibody, human IgG1, kappa, L234A L235A, V domains shown, Fully human, IgG1 / kappa; also called anti-FAP antibody Ab9) VH: QMQLVQSGAEVKKPGASVTVSCRASGYSFADHFIHWVRQAPGQGFQWMGWINPNRGVTHHAQDFQGRVAMTRDMSTDTVYMELTSLRSDDTAVYYCARDESLTARPYYFYGFDVWGQGTLVTVSS VL: DIQMTQSPSSVSASVGDRVTITCRASQGISSWLAWYQQKPGKAPKLLIYAASSLQSGVPSRFSGSGSGTDFTLTISSLQPEDFATYYCQQANSFPPAFGQGTKVEIKR														0.368	0.306	4.3	3.54	7.19e-05	235000	~5	EC50 (h-FAP-His [11]): 101000 ng/mL
Ab10 (antibody, human IgG1, kappa, L234A L235A, V domains shown, Fully human, IgG1 / kappa; also called anti-FAP antibody Ab10; Ab110) VH: QVQLQQSGVEVKKPGASVTVSCRASGYSFADHFIHWVRQAPGQGFQWMGWINPNRGVTHHAQDFQGRVAMTRDMSTDTVYMELTSLRSDDTAVYYCARDASLTARPYYFYGFDVWGQGTLVTVSS VL: DIQMTQSPSSVSASVGDRVTITCRASQGISSWLAWYQQKPGKAPKLLIYAASSLQSGVPSRFSGSGSGTDFTLTISSLQPEDFATYYCQQANSFPPAFGQGTKVEIKR	1.41	72000	10.4	26400			7.34	64600			0.34	7.39e-05	217000	0.432	0.245	5.3	3.5	7.28e-05	297000	~2	EC50 (h-FAP-His [11]): 92000 ng/mL

From US20250051467A1 (JIANGSU HENGRUI PHARMACEUTICALS, published 2025)
